Results published in paper doi:10.1101/2025.11.11.687775.
Like-named read-outs stand apart in the source and are kept apart here.

Tests used:
[1] = target: microtubules of primary rat hippocampal neurons (rat (endogenous in primary hippocampal neurons)) (UniProt P68370)
[2] = target: microtubules of primary rat hippocampal neurons (rat (endogenous in primary hippocampal neurons)) (UniProt P68370); experiment: FRAP + reaction-diffusion simulation
[3] = target: microtubules of primary rat hippocampal neurons (rat (endogenous in primary hippocampal neurons)) (UniProt P68370); experiment: FRAP + reaction-diffusion simulation; remark: listed apart in the source
[4] = target: microtubules of primary rat hippocampal neurons (rat (endogenous in primary hippocampal neurons)) (UniProt P68370); remark: listed apart in the source
[5] = target: microtubules of Tau-knockout mouse neurons (mouse (endogenous in Tau-KO neurons)) (UniProt P68369)

| Substance | FRAP recovery plateau in rat neurons (Figure 3B) [1] | Kd [2] [nM] | other results |
| --- | --- | --- | --- |
| GFP-tagged Tau 198A single alanine substitution mutant (natural protein) | 0.586 |  |  |
| GFP-tagged Tau 198A/199A mutant (2A) (natural protein) |  | 905 |  |
| GFP-tagged Tau 198A/199A/202A/205A mutant (4A) (natural protein) |  | 510 |  |
| GFP-tagged Tau 199A single alanine substitution mutant (natural protein) | 0.584 | 1350 |  |
| GFP-tagged wild-type human Tau, 0N4R isoform (AcGFP-Tau0N4R-His) (from UniProt P10636-6 1-383) (natural protein) | 0.712 | 3000 | koff [3]: > 0.3 s⁻¹; kon [3]: > 100000 M⁻¹ s⁻¹; koff [2]: > 0.1 s⁻¹; kon [2]: > 300000 M⁻¹ s⁻¹; FRAP recovery rate constant (K) in rat neurons (Figure 3D), n = 12 [4]: 0.081; FRAP recovery rate constant (K), n = 6 (read as Tau-KO neurons) [5]: 0.085 |
